From PMC11480844 (2024)

B1: H2-Kb / Ed23 (parent complex)
chain 1: QQKVQQSPESLTVSEGAMASLNCTFSDRSSDNFRWYRQHSGKGLEVLVSIFSDGEKEEGSFTAHLNRASLHVFLHIREPQPSDSALYLCAVRGFWTNKVVFGTGTRLQVLP
chain 2: AQTIHQWPVAEIKAVGSPLSLGCTIKGKSSPNLYWYWQATGGTLQQLFYSITVGQVESVVQLNLSASRPKDDQFILSTEKLLLSHSGFYLCAWSPRQSSYEQYFGPGTRLTVL
chain 3: not shown
chain 4: IQKTPQIQVYSRHPPENGKPNILNCYVTQFHPPHIEIQMLKNGKKIPKVEMSDMSFSKDWSFYILAHTEFTPTETDTYACRVKHDSMAEPKTVYWDRDM
chain 5: SIINFEKL
B2: H2-Kb / Ed9 (parent complex)
chain 1: AQSVTQPDARVTVSEGASLQLRCKYSYFGTPYLFWYVQYPRQGLQLLLKYYPGDPVVQGVNGFEAEFSKSNSSFHLRKASVHWSDWAVYFCAVSITGGYKVVFGSGTRLLVSP
chain 2: DSGVVQSPRHIIKEKGGRSVLTCIPISGHSNVVWYQQTLGKELKFLIQHYEKVERDKGFLPSRFSVQQFDDYHSEMNMSALELEDSAMYFCASSPRQSDYTFGSGTRLLVI
chain 3: not shown
chain 4: B1 chain 4
chain 5: SIINFEKL

Variants of: B1
Experiment: % of reporter cells activated (NFAT-GFP), raw
Further: test concentration or dose not given here.

| Variant | ratio to parent |
| --- | --- |
| chain 5 I3Q | 1.22 |
| chain 5 I3L | 1.4 |
| chain 5 I3G | 1.04 |
| chain 5 I3S | 1.23 |
| chain 5 I3K | 0.952 |
| chain 5 I3D | 0.768 |
| chain 5 I3A | 1.06 |
| chain 5 I3R | 0.636 |
| chain 5 I3W | 0.975 |
| chain 5 I3V | 1.41 |
| chain 5 I3Y | 0.17 |
| chain 5 E6K | 1.14 |
| chain 5 E6L | 0.0247 |
| chain 5 E6W | 0.0503 |
| chain 5 E6Y | 0.588 |
| chain 5 E6I | 0.0187 |
| chain 5 E6Q | 0.604 |
| chain 5 E6F | 0.147 |
| chain 5 E6M | 0.486 |
| chain 5 E6D | 0.828 |
| chain 5 E6R | 0.316 |
| chain 5 E6H | 0.551 |
| chain 5 E6V | 0.0859 |
| chain 5 E6N | 0.0348 |

| Variant | ratio to parent |
| --- | --- |
| chain 5 E6A | 0.157 |
| chain 5 E6P | 0.0439 |
| chain 5 E6S | 0.0871 |
| chain 5 E6T | 0.0505 |
| chain 5 E6G | 1.28 |
| chain 5 L8F | 1.13 |
| chain 5 L8R | 1.26 |
| chain 5 L8Y | 1.24 |
| chain 5 L8K | 1.23 |
| chain 5 L8P | 1.24 |
| chain 5 L8V | 0.856 |
| chain 5 L8Q | 1.21 |
| chain 5 L8I | 1.15 |
| chain 5 L8C | 1.06 |
| chain 5 L8N | 1.05 |
| chain 5 L8W | 0.934 |
| chain 5 L8G | 1.11 |
| chain 5 K7R | 1.42 |
| chain 5 K7F | 0.0793 |
| chain 5 K7N | 0.785 |
| chain 5 K7H | 0.333 |
| chain 5 K7M | 1.12 |
| chain 5 K7W | 0.975 |
| chain 5 K7G | 1.18 |

| Variant | ratio to parent |
| --- | --- |
| chain 5 K7C | 0.919 |
| chain 5 K7S | 1 |
| chain 5 K7P | 0.798 |
| chain 5 K7V | 0.48 |
| chain 5 K7T | 0.145 |
| chain 5 K7L | 0.477 |
| chain 5 K7A | 0.598 |
| chain 5 N4F | 0.586 |
| chain 5 N4R | 1.22 |
| chain 5 N4V | 0.207 |
| chain 5 N4D | 0.0424 |
| chain 5 N4M | 0.269 |
| chain 5 N4T | 0.342 |
| chain 5 N4A | 0.18 |
| chain 5 N4K | 0.869 |
| chain 5 N4Y | 0.813 |
| chain 5 N4I | 0.277 |
| chain 5 N4E | 0.415 |
| chain 5 N4W | 1.13 |
| chain 5 N4H | 1.04 |
| chain 5 N4S | 0.42 |
| chain 5 F5E | 0.937 |
| chain 5 F5H | 1.37 |
| chain 5 F5T | 1.33 |

| Variant | ratio to parent |
| --- | --- |
| chain 5 F5A | 1.36 |
| chain 5 F5I | 1.25 |
| chain 5 F5P | 0.864 |
| chain 5 F5K | 1.19 |
| chain 5 F5W | 1.08 |
| chain 5 F5Y | 1.32 |
| chain 5 F5R | 1.28 |
| chain 5 F5S | 1.19 |
| chain 5 F5V | 1.33 |
| chain 5 F5N | 1.28 |
| chain 5 F5C | 1.3 |
| chain 5 F5D | 0.997 |
| chain 5 F5G | 0.894 |
| chain 5 F5M | 1.15 |
| chain 5 I2K | 1.54 |
| chain 5 I2L | 1.49 |
| chain 5 I2G | 0.952 |
| chain 5 I2D | 1.31 |
| chain 5 I2W | 1.07 |
| chain 5 I2Q | 1.39 |
| chain 5 I2H | 1.36 |
| chain 5 I2R | 1.72 |
| chain 5 I2C | 1.38 |
| chain 5 I2Y | 0.96 |

| Variant | ratio to parent |
| --- | --- |
| chain 5 I2P | 1.38 |
| chain 5 I2N | 1.49 |
| chain 5 I2M | 1.46 |
| chain 5 I2F | 1.21 |
| chain 5 I2S | 1.12 |
| chain 5 I2E | 1.39 |
| chain 5 I2V | 1.42 |
| chain 5 I2A | 1.3 |
| chain 5 S1P | 1.46 |
| chain 5 S1I | 0.218 |
| chain 5 S1T | 1.64 |
| chain 5 S1G | 0.896 |
| chain 5 S1K | 0.558 |
| chain 5 S1N | 0.27 |
| chain 5 S1D | 0.735 |
| chain 5 S1V | 1.12 |
| chain 5 S1H | 0.523 |
| chain 5 S1C | 0.722 |
| chain 5 S1Y | 0.886 |
| chain 5 S1R | 1.01 |
| chain 5 S1F | 0.207 |
| chain 5 S1A | 1.26 |

Variants of: B2
Experiment: % of reporter cells activated (NFAT-GFP), raw

| Variant | ratio to parent |
| --- | --- |
| chain 5 N4A | 0.0077 |
| chain 5 N4E | 0.00953 |
| chain 5 N4P | 0.0766 |
| chain 5 N4S | 0.0154 |
| chain 5 N4V | 0.0308 |
| chain 5 N4Q | 0.0236 |
| chain 5 N4F | 0.012 |
| chain 5 L8W | 1 |
| chain 5 L8S | 0.899 |
| chain 5 L8I | 1.17 |
| chain 5 L8Y | 1.23 |
| chain 5 L8G | 1 |
| chain 5 L8F | 1.14 |
| chain 5 L8T | 1.09 |
| chain 5 L8K | 1.09 |
| chain 5 L8N | 0.883 |

| Variant | ratio to parent |
| --- | --- |
| chain 5 I3A | 0.184 |
| chain 5 I3Y | 0.0606 |
| chain 5 S1D | 0.125 |
| chain 5 S1P | 0.0373 |
| chain 5 S1V | 0.0112 |
| chain 5 S1I | 0.0106 |
| chain 5 I2F | 1.13 |
| chain 5 I2Q | 0.82 |
| chain 5 F5Y | 1.22 |
| chain 5 F5S | 1.31 |
| chain 5 F5E | 1.03 |
| chain 5 F5N | 1.15 |
| chain 5 K7M | 0.546 |
| chain 5 K7E | 0.226 |
| chain 5 K7T | 0.957 |
| chain 5 E6Y | 0.0945 |
